Molecular target: Akt WT (transfected) (UniProt P31749)
Assay: co-immunoprecipitation (K8/K18 IP, Akt immunoblot, quantified)
Conditions: BHK-21 cells transfected with Akt WT, parent: est. 1.0, read off a plot

Sequence of Akt WT (transfected) (P31749 whole entry): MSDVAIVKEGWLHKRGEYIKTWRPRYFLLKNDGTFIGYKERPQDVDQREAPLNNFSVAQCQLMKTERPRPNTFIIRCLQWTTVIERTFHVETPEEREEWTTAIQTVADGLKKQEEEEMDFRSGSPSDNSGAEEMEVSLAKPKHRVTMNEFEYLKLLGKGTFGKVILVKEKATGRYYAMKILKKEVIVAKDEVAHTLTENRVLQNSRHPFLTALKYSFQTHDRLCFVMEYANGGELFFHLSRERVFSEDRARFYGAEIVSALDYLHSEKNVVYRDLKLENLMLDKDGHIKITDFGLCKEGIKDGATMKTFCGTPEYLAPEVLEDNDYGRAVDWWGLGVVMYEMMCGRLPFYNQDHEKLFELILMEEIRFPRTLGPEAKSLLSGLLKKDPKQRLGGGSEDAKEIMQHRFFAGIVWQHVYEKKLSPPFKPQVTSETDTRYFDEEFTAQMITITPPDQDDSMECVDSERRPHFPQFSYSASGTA
Sequence of K8 WT/K18 WT (transfected) (from UniProt P05787;P05783) K8:Y54H (P05787 whole entry, stated change not applied): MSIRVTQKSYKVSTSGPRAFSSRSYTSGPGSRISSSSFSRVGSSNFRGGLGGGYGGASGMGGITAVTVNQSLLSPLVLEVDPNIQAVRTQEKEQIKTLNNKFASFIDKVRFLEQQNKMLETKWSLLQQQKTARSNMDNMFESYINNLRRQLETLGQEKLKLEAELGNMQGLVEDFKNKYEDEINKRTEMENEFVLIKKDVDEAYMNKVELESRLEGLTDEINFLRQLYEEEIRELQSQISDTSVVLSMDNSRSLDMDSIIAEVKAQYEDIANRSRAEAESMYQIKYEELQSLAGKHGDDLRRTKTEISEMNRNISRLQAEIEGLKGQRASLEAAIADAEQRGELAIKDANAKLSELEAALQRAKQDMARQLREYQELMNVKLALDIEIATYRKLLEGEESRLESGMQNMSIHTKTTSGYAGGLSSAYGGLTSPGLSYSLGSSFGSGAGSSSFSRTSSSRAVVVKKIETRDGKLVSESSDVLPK
Sequence of K8 WT/K18 WT (transfected) (from UniProt P05787;P05783) K8:Y54H (P05783 whole entry, stated change not applied): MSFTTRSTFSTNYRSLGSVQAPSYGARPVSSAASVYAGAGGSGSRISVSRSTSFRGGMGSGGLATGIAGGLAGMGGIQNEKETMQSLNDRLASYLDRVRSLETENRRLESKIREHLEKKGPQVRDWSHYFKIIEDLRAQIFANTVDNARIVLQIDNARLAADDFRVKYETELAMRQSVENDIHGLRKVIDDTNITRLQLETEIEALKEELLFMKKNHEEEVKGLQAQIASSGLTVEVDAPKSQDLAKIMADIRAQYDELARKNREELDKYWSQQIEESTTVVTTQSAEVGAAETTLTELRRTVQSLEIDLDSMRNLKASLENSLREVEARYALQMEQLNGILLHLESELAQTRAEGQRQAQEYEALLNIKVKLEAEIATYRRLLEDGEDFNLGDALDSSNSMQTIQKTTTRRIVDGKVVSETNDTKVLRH
Sequence of K8 WT/K18 WT (transfected) (from UniProt P05787;P05783) K18:Q284R (P05787 whole entry, stated change not applied): as the sequence (P05787 whole entry, stated change not applied) above
Sequence of K8 WT/K18 WT (transfected) (from UniProt P05787;P05783) K18:Q284R (P05783 whole entry, stated change not applied): as the sequence (P05783 whole entry, stated change not applied) above
Sequence of K8 WT/K18 WT (transfected) (from UniProt P05787;P05783) K8:A319S (P05787 whole entry, stated change not applied): as the sequence (P05787 whole entry, stated change not applied) above
Sequence of K8 WT/K18 WT (transfected) (from UniProt P05787;P05783) K8:A319S (P05783 whole entry, stated change not applied): as the sequence (P05783 whole entry, stated change not applied) above
Sequence of K8 WT/K18 WT (transfected) (from UniProt P05787;P05783) K8:R454C (P05787 whole entry, stated change not applied): as the sequence (P05787 whole entry, stated change not applied) above
Sequence of K8 WT/K18 WT (transfected) (from UniProt P05787;P05783) K8:R454C (P05783 whole entry, stated change not applied): as the sequence (P05783 whole entry, stated change not applied) above
Sequence of K8 WT/K18 WT (transfected) (from UniProt P05787;P05783) K8:R341H (P05787 whole entry, stated change not applied): as the sequence (P05787 whole entry, stated change not applied) above
Sequence of K8 WT/K18 WT (transfected) (from UniProt P05787;P05783) K8:R341H (P05783 whole entry, stated change not applied): as the sequence (P05783 whole entry, stated change not applied) above
Sequence of K8 WT/K18 WT (transfected) (from UniProt P05787;P05783) K18:T294M (P05787 whole entry, stated change not applied): as the sequence (P05787 whole entry, stated change not applied) above
Sequence of K8 WT/K18 WT (transfected) (from UniProt P05787;P05783) K18:T294M (P05783 whole entry, stated change not applied): as the sequence (P05783 whole entry, stated change not applied) above
Sequence of K8 WT/K18 WT (transfected) (from UniProt P05787;P05783) K18:I149V (P05787 whole entry, stated change not applied): as the sequence (P05787 whole entry, stated change not applied) above
Sequence of K8 WT/K18 WT (transfected) (from UniProt P05787;P05783) K18:I149V (P05783 whole entry, stated change not applied): as the sequence (P05783 whole entry, stated change not applied) above

Row | ratio to parent (K18 WT and the K8 mutant) | ratio to parent (K8 WT and the K18 mutant) | Substance
1 | 0.93 | – | K8 WT/K18 WT (transfected) (from UniProt P05787;P05783) K8:A319S
2 | 0.92 | – | K8 WT/K18 WT (transfected) (from UniProt P05787;P05783) K8:R341H
3 | 1.1 | – | K8 WT/K18 WT (transfected) (from UniProt P05787;P05783) K8:R454C
4 | 1.1 | – | K8 WT/K18 WT (transfected) (from UniProt P05787;P05783) K8:Y54H
5 | – | 1.1 | K8 WT/K18 WT (transfected) (from UniProt P05787;P05783) K18:I149V
6 | – | 1.3 | K8 WT/K18 WT (transfected) (from UniProt P05787;P05783) K18:Q284R
7 | – | 1.6 | K8 WT/K18 WT (transfected) (from UniProt P05787;P05783) K18:T294M

— paper PMC8430995
